Values joined by “and” are separate entries in the source; they are usually repeats but may differ in a detail not shown here. Identical values can stand only once.
Columns and labels:
[1] = biological target: recombinant low-density lipoprotein receptor-related protein 1 (LRP-1) Cluster IV; assay: SPR; Biacore T200, 25°C, HBS-EP+ with 8 mM CaCl2; LRP-1 (approx. 1300 RU), ASGR1 (approx. 1500 RU) and MRC1 (approx. 13,000 RU) amine-coupled to parallel flow cells of CM5; Metalyse (88, 53, 32 μg/mL) and Mingfule (53, 32, 19 μg/mL) injected at 30 μL/min for 240 s, 150 s dissociation; sensorgram comparison gives a similarity score
[2] = biological target: asialoglycoprotein receptor 1 (ASGR1, P01) (UniProt P07306); assay: as above
[3] = biological target: mannose receptor C, type 1 (MRC1) (UniProt P22897); assay: as above
Chain of UniProt P22897 (P22897 19-1389): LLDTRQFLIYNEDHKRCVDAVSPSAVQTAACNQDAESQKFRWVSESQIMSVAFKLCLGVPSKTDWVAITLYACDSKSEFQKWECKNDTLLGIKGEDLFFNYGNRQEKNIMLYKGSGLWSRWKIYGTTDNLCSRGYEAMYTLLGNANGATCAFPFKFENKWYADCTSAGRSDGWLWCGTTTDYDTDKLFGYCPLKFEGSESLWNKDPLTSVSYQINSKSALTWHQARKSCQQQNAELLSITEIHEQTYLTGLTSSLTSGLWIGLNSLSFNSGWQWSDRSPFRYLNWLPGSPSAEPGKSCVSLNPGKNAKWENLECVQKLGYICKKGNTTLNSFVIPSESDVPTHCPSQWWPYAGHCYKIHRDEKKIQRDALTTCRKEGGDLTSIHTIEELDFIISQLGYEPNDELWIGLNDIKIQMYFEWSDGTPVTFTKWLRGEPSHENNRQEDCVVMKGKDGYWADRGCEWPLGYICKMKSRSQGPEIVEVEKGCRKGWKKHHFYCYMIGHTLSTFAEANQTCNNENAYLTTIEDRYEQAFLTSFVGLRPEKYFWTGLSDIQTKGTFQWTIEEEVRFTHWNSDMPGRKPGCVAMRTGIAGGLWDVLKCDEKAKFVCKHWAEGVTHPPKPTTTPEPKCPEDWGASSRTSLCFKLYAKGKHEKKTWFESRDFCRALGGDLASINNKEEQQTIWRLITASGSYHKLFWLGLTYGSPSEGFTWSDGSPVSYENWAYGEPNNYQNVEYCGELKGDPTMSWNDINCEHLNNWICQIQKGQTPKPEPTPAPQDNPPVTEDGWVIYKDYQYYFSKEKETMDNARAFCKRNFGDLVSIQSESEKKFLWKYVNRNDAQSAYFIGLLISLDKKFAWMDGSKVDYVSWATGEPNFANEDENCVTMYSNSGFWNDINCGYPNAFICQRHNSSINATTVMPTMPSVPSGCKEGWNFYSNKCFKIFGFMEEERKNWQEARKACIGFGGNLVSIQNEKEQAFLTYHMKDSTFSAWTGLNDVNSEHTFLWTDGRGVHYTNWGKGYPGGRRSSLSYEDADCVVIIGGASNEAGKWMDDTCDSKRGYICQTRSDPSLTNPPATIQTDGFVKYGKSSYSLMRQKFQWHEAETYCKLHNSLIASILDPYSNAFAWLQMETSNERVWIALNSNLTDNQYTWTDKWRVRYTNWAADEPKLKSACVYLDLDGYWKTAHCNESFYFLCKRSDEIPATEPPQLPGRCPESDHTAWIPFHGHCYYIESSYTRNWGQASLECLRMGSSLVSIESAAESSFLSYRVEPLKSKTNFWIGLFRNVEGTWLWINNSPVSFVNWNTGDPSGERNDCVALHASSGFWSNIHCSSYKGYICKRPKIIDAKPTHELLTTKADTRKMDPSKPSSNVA

[4] = biological target: fibrin (immobilised human plasma fibrinogen cross-linked on the chip with thrombin and coagulation factor XIII) (human) (UniProt P02671); assay: SPR; Biacore T200, 25°C, HBS-EP+; fibrinogen amine-coupled to CM5 (aim 12,000 RU) and cross-linked with thrombin and factor XIII; tenecteplase injected at 2, 3 and 4 μg/mL, 5 μL/min, 120 s contact and 120 s dissociation; sensorgram comparison against a corridor (average ± 3 SD, normalised) of three Metalyse lots gives a similarity score
Chain of UniProt P02671 (P02671 36-866, chain 1 of 3): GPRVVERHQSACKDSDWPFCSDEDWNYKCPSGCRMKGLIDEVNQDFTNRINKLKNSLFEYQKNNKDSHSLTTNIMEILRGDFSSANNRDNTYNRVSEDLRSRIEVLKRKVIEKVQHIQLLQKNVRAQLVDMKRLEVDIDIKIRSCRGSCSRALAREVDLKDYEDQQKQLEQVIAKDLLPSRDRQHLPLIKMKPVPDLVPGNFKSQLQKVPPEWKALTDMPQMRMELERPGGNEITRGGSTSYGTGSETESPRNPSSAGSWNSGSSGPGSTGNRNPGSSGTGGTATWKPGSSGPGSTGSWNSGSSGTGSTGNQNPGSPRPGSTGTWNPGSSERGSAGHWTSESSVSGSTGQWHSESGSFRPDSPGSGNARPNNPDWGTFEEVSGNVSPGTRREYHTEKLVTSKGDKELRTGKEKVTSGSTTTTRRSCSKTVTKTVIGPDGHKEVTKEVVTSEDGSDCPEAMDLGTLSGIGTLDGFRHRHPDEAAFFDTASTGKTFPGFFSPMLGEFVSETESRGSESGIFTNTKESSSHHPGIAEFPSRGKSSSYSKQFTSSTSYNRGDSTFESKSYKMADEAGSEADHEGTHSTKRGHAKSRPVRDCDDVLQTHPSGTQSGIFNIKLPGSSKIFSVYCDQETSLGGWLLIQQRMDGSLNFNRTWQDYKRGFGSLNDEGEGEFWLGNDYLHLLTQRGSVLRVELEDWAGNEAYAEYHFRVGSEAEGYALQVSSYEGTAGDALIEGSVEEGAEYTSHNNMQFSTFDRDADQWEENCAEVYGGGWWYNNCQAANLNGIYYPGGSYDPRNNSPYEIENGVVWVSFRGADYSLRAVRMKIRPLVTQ
Chain of UniProt P02671 (P02675 45-491, chain 2 of 3, further chain): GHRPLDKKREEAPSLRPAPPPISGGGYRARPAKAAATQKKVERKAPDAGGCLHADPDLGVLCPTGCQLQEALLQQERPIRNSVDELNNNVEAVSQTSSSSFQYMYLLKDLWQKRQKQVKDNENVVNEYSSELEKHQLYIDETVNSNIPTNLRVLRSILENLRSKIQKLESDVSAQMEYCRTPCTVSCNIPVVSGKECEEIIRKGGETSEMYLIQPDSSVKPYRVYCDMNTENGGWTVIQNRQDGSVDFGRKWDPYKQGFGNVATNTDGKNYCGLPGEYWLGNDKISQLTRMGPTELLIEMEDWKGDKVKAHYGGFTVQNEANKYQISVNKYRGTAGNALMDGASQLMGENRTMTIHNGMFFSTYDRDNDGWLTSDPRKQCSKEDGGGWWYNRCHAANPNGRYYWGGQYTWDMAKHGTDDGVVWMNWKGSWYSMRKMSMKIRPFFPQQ
Chain of UniProt P02671 (P02679 27-453, chain 3 of 3, further chain): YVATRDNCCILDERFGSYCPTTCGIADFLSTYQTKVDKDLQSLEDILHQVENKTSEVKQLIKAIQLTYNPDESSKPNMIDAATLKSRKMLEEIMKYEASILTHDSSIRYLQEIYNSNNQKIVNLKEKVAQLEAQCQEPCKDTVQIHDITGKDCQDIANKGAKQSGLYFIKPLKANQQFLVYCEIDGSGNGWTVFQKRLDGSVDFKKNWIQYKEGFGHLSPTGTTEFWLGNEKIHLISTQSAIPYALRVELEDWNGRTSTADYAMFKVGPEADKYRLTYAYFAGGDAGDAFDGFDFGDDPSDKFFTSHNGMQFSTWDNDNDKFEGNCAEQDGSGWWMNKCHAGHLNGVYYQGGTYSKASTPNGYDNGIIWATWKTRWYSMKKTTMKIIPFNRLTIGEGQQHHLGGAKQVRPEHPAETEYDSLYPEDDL

similarity score to Metalyse (SPR sensorgram comparison) [1]: 30% and 17% and 25%
similarity score to Metalyse (SPR sensorgram comparison) [2]: 5% and 6% and 9%
similarity score to Metalyse (SPR sensorgram comparison) [3]: 8% and 9% and 10%
similarity score to Metalyse (SPR sensorgram comparison) [4]: 53% and 37% and 46%
Substance: tenecteplase copy Mingfule 16 mg/vial (CSPC Recomgen Pharmaceutical, Guangzhou, Co., Ltd.) (enzyme)
